# Source: the supplement of paper PMC10567573
# B1: SEC22B (parent)
# chain: AKQLFRKLNEQSPTRCTLEAGAMT
# B2: C1orf137 (parent)
# chain: RQHHHQSSFPGSLPQETNLTLKVC
# Variants of: B1
# Experiment: protein stability index of a GFP-peptide fusion (GPS, HEK-293T) (PSI 1-6); higher = more stable
# Conditions: c terminus: a fixed tail appended
# 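Note: lentivirally expressed fusions sorted by FACS into six bins by GFP to DsRed ratio, PSI derived from sequencing read proportions per bin multiplied by bin number.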
row,Variant,protein stability index
1,R6F,1.49
2,R6E,2.46
3,R6A,2.14
4,R6I,1.67
5,R6D,2.67
6,R6H,2.46
7,R6G,2.36
8,R6C,2.42
9,A1L,2.07
10,A1D,2.98
11,A1M,1.6
12,A1K,2.77
13,A1R,2.23
14,A1G,2.26
15,A1N,2.22
16,A1C,2.09
17,A1T,2.3
18,A1I,1.5
19,A1S,2.46
20,A1V,2.16
21,A1H,2.23
22,A1E,3.12
23,A1Y,1.89
24,A1P,2.52
25,A1Q,2.44
26,A1F,2.18

row,Variant,protein stability index
1,K2C,1.7
2,K2N,2.72
3,K2A,2.13
4,K2E,2.92
5,K2F,1.72
6,K2S,2.4
7,K2Y,2.24
8,K2Q,2
9,K2V,1.54
10,K2R,2.76
11,K2L,2.1
12,K2M,1.8
13,K2W,2.92
14,K2H,1.94
15,K2T,1.83
16,K2P,2.57
17,K2G,2.77
18,K2I,1.43
19,K2D,2.42
20,F5D,3.37
21,F5E,2.97
22,F5Y,2.28
23,F5V,2.95
24,F5W,1.94
25,F5M,2.62
26,F5L,2.48

row,Variant,protein stability index
1,F5T,2.75
2,F5G,3.62
3,F5R,3.22
4,F5K,3.47
5,F5Q,3.23
6,F5H,2.89
7,F5N,3.07
8,F5P,3.46
9,F5A,3.67
10,F5C,2.55
11,F5S,3.44
12,F5I,2.3
13,Q3G,2.39
14,Q3H,1.93
15,Q3F,2.18
16,Q3R,1.93
17,Q3I,1.77
18,Q3V,2.11
19,Q3L,2.08
20,Q3C,2.39
21,Q3S,1.88
22,Q3K,2.02
23,Q3P,2.5
24,Q3E,2.51
25,Q3M,1.94
26,Q3W,2.53

row,Variant,protein stability index
1,Q3A,2.2
2,Q3N,3.08
3,Q3D,2.3
4,Q3T,2.59
5,Q3Y,1.55
6,L4H,3.12
7,L4A,2.73
8,L4G,2.94
9,L4M,2.4
10,L4W,2.02
11,L4C,2.77
12,L4V,2.07
13,L4D,3.27
14,L4P,3.07
15,L4N,2.75
16,L4Y,2.32
17,L4S,3.44
18,L4Q,2.68
19,L4E,3.62
20,L4R,2.96
21,L4T,3.27
22,L4F,1.89
23,L4I,1.99
24,L4K,2.89

# Variants of: B2
# Experiment: as above
# Conditions: c terminus: a fixed tail appended
row,Variant,protein stability index
1,C24T,3.37
2,C24Y,2.22
3,L21K,3.79
4,L21W,3.08
5,L13A,2.72
6,L13Q,2.89
7,L13G,2.98
8,E16S,2.63
9,E16Y,1.72
10,E16W,1.55
11,Q2N,2.62
12,G11C,2.61
13,G11V,2.98
14,G11A,2.21
15,G11P,2.53
16,N18M,2.51
17,N18S,2.65
18,N18P,3.17
19,H5T,3.28
20,H5R,3.64
21,H5L,2.73
22,S8E,3.85

row,Variant,protein stability index
1,S8G,2.47
2,S8N,3.08
3,S8F,1.84
4,H3F,2.04
5,H3R,2.88
6,H3G,3.11
7,S7K,3.11
8,S7R,3.34
9,V23I,2.46
10,V23R,3.83
11,V23S,3.73
12,R1V,3.05
13,R1S,3.4
14,R1N,2.7
15,P10F,2.27
16,P10M,2.19
17,P10H,2.77
18,H4W,2.87
19,H4R,1.94
20,H4C,2.87
21,H4I,2.34
22,K22A,2.57

row,Variant,protein stability index
1,K22E,3.44
2,K22T,2.43
3,K22L,1.94
4,T17D,3.89
5,T17A,2.87
6,T17I,1.17
7,T17M,2.44
8,Q6N,2.71
9,Q6V,2.89
10,Q6M,2.23
11,Q6G,3.22
12,L19E,4.34
13,S12G,2.96
14,S12M,2.73
15,S12Q,2.55
16,S12K,2.98
17,P14F,2
18,P14H,2.37
19,P14E,3.17
20,T20Y,1.75
21,T20I,2.13
